Measured values reported in patent publication US20260234116A1, “CYTOTOXIC EPOXYKETONE COMPOUNDS, PRECURSORS, COMPOSITIONS, AND METHODS OF USE” (Memorial Sloan-Kettering Cancer Center, priority 2023, published 2026).

Experiments:
EpnF [1] = target: T1, EpnF (Streptomyces hygroscopicus, UniProt V5RMU9); experiment: Semiquantitative epoxide capture assay (EpnF-catalyzed epoxyketone formation); type: biochemical; details: 1 μM EpnF; for EpnF-catalyzed conversion to epoxyketone (epoxide capture): 240 μM β-ketoacid substrate (FIG. 2)
Experimental: Recombinant EpnF was diluted to 1 μM in 180 μL EpnF Buffer in an 1.5 mL Eppendorf tube. The β-ketoacid 11 was added at various concentrations to a total reaction volume of 200 μL. The mixture was incubated in a heated shaker at 37° C. and 225 rpm for 1 h. The reaction mixture (30 μL×3 technical replicates) was transferred to a white, opaque 96-well plate (PerkinElmer, OptiPlate-96). Each plate also contained 30 μL×3 technical replicates of EpnF Buffer as a negative control. To each well, 15 μL of 125 mM nicotinamide in EpnF Buffer was added and mixed by pipetting. The plate was sealed with an adhesive foil cover (VWR Adhesive Foil for Microplates) and heated in an oven at 80° C. for 1 h. The plate was cooled to rt and 25 μL of 15% (v/v) acetophenone in EtOH and 25 μL of 1 M potassium hydroxide in EtOH were added to each well, then mixed by pipetting. The plate was cooled on ice for 10 min, then 125 μL formic acid was added to each well. The plate was resealed and heated in an oven at 100° C. for 5 min. The plate was cooled on ice for 5-10 min, then analyzed (λex 370 nm, λem 430 nm) on a fluorescence plate reader (Molecular Devices Spectramax M3).
We adapted a reported epoxide capture assay [Nelis, H. J. C. F.; Sinsheimer, J. E. (1981) A sensitive fluorimetric procedure for the determination of aliphatic epoxides under physiological conditions. Anal. Biochem. 115, 151-157.] to 96-well plate format to detect formation of the epoxyketone products semiquantitatively. Each β-ketoacid substrate 11 was incubated with recombinant, purified EpnF (1 h), then reacted with nicotinamide and acetophenone (1 h) to form a fluorescent 1,6-naphthyridinone 24. The fluorescent signals were normalized to that resulting from the known substrate β-ketoacid 11n as a positive control [Zabala, D.; Cartwright, J. W.; Roberts, D. M.; Law, B. J. C.; Song, L.; Samborskyy, M.; Leadlay, P. F.; Micklefield, J.; Challis, G. L. (2016) A flavin-dependent decarboxylase-dehydrogenase-monooxygenase assembles the warhead of α,β-epoxyketone proteasome inhibitors. J. Am. Chem. Soc. 138, 4342-4345.].

[2] = during isolation and characterization; cited from earlier work
EpnF [3] = target: T1, EpnF; experiment: Enzyme kinetic analysis by SPE-MS/MS assay; type: biochemical; details: for efficiency of EpnF-catalyzed conversion compared to parent substrate 11a (in words): quantitative SPE-MS/MS assay
Experimental: (§1) SPE-MS/MS analyses were carried out on an Agilent RapidFire 365 High-Throughput Mass Spectrometry System with 6495 triple quadrupole mass spectrometer. Determination of initial velocity: EpnF stock at 100 μM was diluted 10-fold in EpnF Buffer to a 10 μM working solution, which was further diluted to 8 concentrations (10-0.005 μM) in EpnF Buffer (intermediate volume 1350 μL, concentrations calculated for 1500 μL theoretical final volume corresponding to addition of substrate solutions below). The 8 EpnF enzyme dilutions were aliquoted (90 μL) into the corresponding 8 tubes of PCR tube strips (12 strips, one per time point; Thermo Scientific, AB-2000). The β-ketoacid 11 (20 mM in EtOH) was diluted to 10 μM in EpnF Buffer, then 10 μL of this solution was added to each of the tubes (1 μM final concentration, 100 μL final volume) to initiate the reaction. Samples were incubated in a heated shaker at 37° C. and 225 rpm for up to 120 min, and one tube strip was removed at each time point. Each tube was quenched with 5% formic acid in EpnF Buffer (100 μL), pipetted vigorously, and flash frozen on dry ice. Samples were thawed then centrifuged to precipitate protein and transferred to a conical-bottom 96-well plate (Thermo Scientific/Nunc, 249944) for SPE-MS/MS analysis. Measurement of Km and Vmax: Using the data from the initial velocity experiments above, an appropriate EpnF enzyme concentration was selected for each β-ketoacid 11 at which the rate of conversion to the epoxyketone 12 remained linear at 10 min (0.50 μM for 11n and 0.05 μM for all other substrates). Each substrate (20 mM in EtOH) was diluted to 1 mM in EpnF Buffer, then diluted to 8 concentrations (100-0.5 μM) in EpnF Buffer (intermediate volume 1350 μL, concentrations calculated for 1500 μL theoretical volume corresponding to addition of enzyme solutions below). The 8 substrate dilutions were aliquoted (90 μL) into the corresponding 8 tubes of PCR tube strips (12 strips, one per time point; Thermo Scientific, AB-2000). The EpnF enzyme stock solution was diluted in EpnF Buffer to the appropriate concentration for each substrate, then 10 μL of this solution was added to each of the tubes (100 μL final volume) to initiate the reaction. For the 0-min time point, 5% formic acid in EpnF Buffer was added to the β-ketoacid substrate before addition of the enzyme. Samples were incubated in a heated shaker at 37° C. and 225 rpm for up to 10 min, and one tube strip was removed at each time point. Each tube was quenched by addition of 5% formic acid in EpnF Buffer (100 μL), pipetted vigorously, and flash frozen on dry ice. Samples were thawed then centrifuged to precipitate proteins and the supernatants were transferred to a conical-bottom 96-well plate (Thermo Scientific/Nunc, 249944) for SPE-MS/MS analysis. Km and Vmax values for each substrate were calculated by Michaelis-Menten analysis. To obtain a quantitative assessment of EpnF substrate specificity, we developed a kinetic assay (10 min) using SPE-MS/MS (solid-phase extraction/triple quadrupole mass spectrometry; Agilent RapidFire 365 with 6495 MS) to enable direct detection of both substrates and products.

[4] = substrate: CC(C)C[C@H](NC(=O)[C@H](CO)NC(=O)c1ccccc1)C(=O)C(C)(C)C(=O)O; experiment: Enzyme kinetic analysis by SPE-MS/MS assay; type: biochemical; details: other: 0.05 μM EpnF; 37.0 °C
Experimental: as §1

[5] = substrate: CC(C)CCCCC(=O)N[C@@H](CO)C(=O)N[C@@H](CC(C)C)C(=O)C(C)(C)C(=O)O; experiment: Enzyme kinetic analysis by SPE-MS/MS assay; type: biochemical; details: other: 0.05 μM EpnF; 37.0 °C
Experimental: as §1

[6] = substrate: C=C(C)C[C@H](NC(=O)[C@H](CO)NC(=O)CCCCC(C)C)C(=O)C(C)(C)C(=O)O; experiment: Enzyme kinetic analysis by SPE-MS/MS assay; type: biochemical; details: other: 0.05 μM EpnF; 37.0 °C
Experimental: as §1

[7] = substrate: CC(C)CCCCC(=O)N[C@@H](C)C(=O)N[C@@H](CC(C)C)C(=O)C(C)(C)C(=O)O; experiment: Enzyme kinetic analysis by SPE-MS/MS assay; type: biochemical; details: other: 0.05 μM EpnF; 37.0 °C
Experimental: as §1

[8] = substrate: CCCC(=O)N[C@@H](CO)C(=O)N[C@@H](CC(C)C)C(=O)C(C)(C)C(=O)O; experiment: Enzyme kinetic analysis by SPE-MS/MS assay; type: biochemical; details: other: 0.50 μM EpnF; 37.0 °C
Experimental: as §1

[9] = substrate: CC(C)CCCCC(=O)N[C@H](C(=O)N[C@@H](CC(C)C)C(=O)C(C)(C)C(=O)O)C(C)O; experiment: Enzyme kinetic analysis by SPE-MS/MS assay; type: biochemical; details: other: 0.05 μM EpnF; 37.0 °C
Experimental: as §1

CCCC(=O)N[C@@H](CO)C(=O)N[C@@H](CC(C)C)C(=O)C(C)(C)C(=O)O [Compound 11n, (4S)-4-((S)-2-Butyramido-3-hydroxypropanamido)-2,2,6-trimethyl-3-oxoheptanoic acid]
EpnF-catalyzed conversion to epoxyketone (epoxide capture) (EpnF [1]): permitted
spontaneous decarboxylation [2]: can undergo spontaneous decarboxylation

C=C(C)C[C@H](NC(=O)[C@H](CO)NC(=O)CCCCC(C)C)C(=O)C(C)(C)C(=O)O [Compound 11b, (S)-4-((S)-3-Hydroxy-2-(6-methylheptanamido)propanamido)-2,2,6-trimethyl-3-oxohept-6-enoic acid]
converted more efficiently than 11n (EpnF [3]; relative to 11n): ≈ 20 fold
EpnF-catalyzed formation of epoxyketone (epoxide capture) (EpnF [1]; 250 μM β-ketoacid substrate, 1 h, positive control 11n (FIG. 1)): lower levels

CC(C)C[C@H](NC(=O)[C@H](CO)NC(=O)c1ccccc1)C(=O)C(C)(C)C(=O)O [Compound 11o, (4S)-4-[(2S)-3-Hydroxy-2-(phenylformamido)propanamido]-2,2,6-trimethyl-3-oxoheptanoic acid]
efficiency of EpnF-catalyzed conversion compared to parent substrate 11a (in words) (EpnF [3]): slightly lower efficiency
EpnF-catalyzed conversion to epoxyketone (epoxide capture) (EpnF [1]): also tolerated

CCCCCCCCCC(=O)N[C@@H](CO)C(=O)N[C@@H](CC(C)C)C(=O)C(C)(C)C(=O)O [Compound 11q, (4S)-4-[(2S)-2-Decanamido-3-hydroxypropanamido]-2,2,6-trimethyl-3-oxoheptanoic acid]
solubility (kinetic parameters could not be determined) (EpnF [3]; EpnF Buffer): solubility limitations
EpnF-catalyzed conversion to epoxyketone (epoxide capture) (EpnF [1]): permitted

CC(C)CCCCC(=O)N[C@H](C(=O)N[C@@H](CC(C)C)C(=O)C(C)(C)C(=O)O)C(C)O (stereo partly drawn) [Compound 11l, (4S)-4-[(2S)-3-Hydroxy-2-(6-methylheptanamido)butanamido]-2,2,6-trimethyl-3-oxoheptanoic acid]
efficiency of EpnF-catalyzed conversion compared to parent substrate 11a (in words) (EpnF [3]): slightly lower efficiency
EpnF-catalyzed conversion to epoxyketone (epoxide capture) (EpnF [1]): tolerated

B1: EpnF (Streptomyces hygroscopicus) (protein)
chain: MSDSKSVNLFHRHGVPSFLEGIYQGRFEWDMISNFVAQDSADEKAGDAAVERLTDILRNRVNPTAVDATRELPEGLLEELRRTGFLNLQDSPDIGGLGLSSYNTFRVVQAAASWSVPVALVLGIQTAVGSGTYLRALPPGELHSYVEQRLLDGIISGSADTEPAGASNSARRTRAVPTDDGEAFLLTGEKIHIGNGPIADIVTVSAMLDEDGQDRPRLFFVETSDPGFSIRSRHEFMGVKGFPNAALVLDGVRVPRERMIVEVDPDTEVRITAELTMAVVRGRLHLITAPSLAISKLCLEWSRNFVNRRTIDGRPLGAREEIQHMVSSTMADVFAIQALAEWSLLPADQPDLGLNVAFEQNVTKAISAEICWRAADRTMDLLAGEGFETAPSKARRGAPALPLERFYRDARNLRISGGVSFLLQFWAARMSQFTYYGPDHAGQSAALSQDGGQQPCTDGLDPLNADHLRFAAAETRRLGAACQKFAADHPAPGLYEHQHRLIAFSRIADEILTMSVVLAKAARLHHEGRTEAQDLAAIYCAHARDRLAALWRQAEPVTAGPDHAAVSDAWLSGDDTYASLITGVITDVPPTADTHPGKR
Km [4]: 6.13 µM
kcat [4]: 0.0125 s⁻¹
kcat/Km [4]: 1880 M⁻¹ s⁻¹
Km [5]: 11.6 µM
kcat [5]: 0.071 s⁻¹
kcat/Km [5]: 6120 M⁻¹ s⁻¹
Km [6]: 17.3 µM
kcat [6]: 0.114 s⁻¹
kcat/Km [6]: 6580 M⁻¹ s⁻¹
Km [7]: 4.70 µM
kcat [7]: 0.025 s⁻¹
kcat/Km [7]: 5320 M⁻¹ s⁻¹
Km [8]: 23.1 µM
kcat [8]: 0.0067 s⁻¹
kcat/Km [8]: 290 M⁻¹ s⁻¹
Km [9]: 13.3 µM
kcat [9]: 0.016 s⁻¹
kcat/Km [9]: 1200 M⁻¹ s⁻¹
